This assay addresses T1, IGF1R (IGF1 receptor), antigen coated on the ELISA plate (UniProt P08069 31-932, limits assumed).
T1 construct: Construct not described; It may be the same histidine-tagged reagent as m8
Nature of the assay: ELISA, antigen coated at 2 µg/mL, antibody serially diluted, anti-kappa or anti-lambda HRP detection (FIG. 10). Here is the method: The absorbance at 450 nm was measured using a microtiter plate reader.

T1 sequence (P08069 31-932 limits assumed): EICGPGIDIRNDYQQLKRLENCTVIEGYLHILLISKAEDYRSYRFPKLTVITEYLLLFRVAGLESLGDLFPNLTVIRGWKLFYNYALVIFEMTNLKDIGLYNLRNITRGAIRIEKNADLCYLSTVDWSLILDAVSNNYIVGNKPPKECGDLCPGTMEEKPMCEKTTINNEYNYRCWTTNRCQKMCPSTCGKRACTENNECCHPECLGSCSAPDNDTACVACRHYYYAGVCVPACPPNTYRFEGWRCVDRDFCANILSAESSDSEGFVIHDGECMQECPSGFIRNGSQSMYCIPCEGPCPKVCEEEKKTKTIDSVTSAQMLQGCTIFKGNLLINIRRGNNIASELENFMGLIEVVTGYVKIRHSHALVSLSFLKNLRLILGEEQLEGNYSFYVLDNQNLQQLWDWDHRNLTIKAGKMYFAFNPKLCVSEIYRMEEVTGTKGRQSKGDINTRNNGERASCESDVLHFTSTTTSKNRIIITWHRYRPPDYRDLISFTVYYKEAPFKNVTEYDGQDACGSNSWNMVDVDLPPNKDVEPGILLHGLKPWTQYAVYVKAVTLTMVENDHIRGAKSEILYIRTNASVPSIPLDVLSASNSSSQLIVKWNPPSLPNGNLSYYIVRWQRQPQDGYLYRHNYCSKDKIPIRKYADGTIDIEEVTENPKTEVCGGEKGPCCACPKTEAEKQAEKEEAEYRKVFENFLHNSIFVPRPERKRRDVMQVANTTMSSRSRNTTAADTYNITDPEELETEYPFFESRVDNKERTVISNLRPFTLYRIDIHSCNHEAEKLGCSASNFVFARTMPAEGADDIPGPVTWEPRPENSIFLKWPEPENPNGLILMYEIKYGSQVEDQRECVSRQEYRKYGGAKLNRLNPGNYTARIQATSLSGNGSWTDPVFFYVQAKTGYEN

B1: anti-EGFR conventional antibody (monospecific bivalent, kappa light chain; parental arm of iMab-EI) (antibody, V domains shown)
VH: QVQLQESGPGLVKPSETLSLTCTVSGGSVSSGDYYWTWIRQSPGKGLEWIGHIYYSGNTNYNPSLKSRLTISIDTSKTQFSLKLSSVTAADTAIYYCVRDRVTGAFDIWGQGTMVTVSS
VL: DIQMTQSPSSLSASVGDRVTITCQASQDISNYLNWYQQKPGKAPKLLIYDASNLETGVPSRFSGSGSGTDFTFTISSLQPEDIATYFCQHFDHLPLAFGGGTKVEIK
notes: Conventional IgG with kappa light chain; constant regions not specified; also called anti-EGFR antibody; parental arm antibody
On to B1, for which the binding result was “no binding”.

For the origin of these results see patent US20140155581A1 (AstraZeneca / MedImmune, published 2014).
